Assays:
Type in all cases: cell-based, human
[1] = test system: basophils in whole blood from HDM allergic donors; assay: Basophil Activation Test (BAT); conditions: blood from HDM allergic individuals (n=14)
Experimental: Basophil Activation Test (BAT) was used as a predictive in vitro assay for indication of safety/immediate hypersensitivity reactions. The BAT assay is a widely used diagnostic test that is also used for evaluation of allergenicity of allergen derived components. In short: whole blood from HDM allergic donors was stimulated for 1 h with the proteins, and the increased expression of activation markers on the surface of basophils were measured by flow cytometry. The BAT test was carried out using different concentrations of the proteins and the allergens Der p 2 and Der p 1 was used as controls and tested in the same concentration rates.
(§1) This example relates to the further testing of immunogenicity of the proteins identified in Example 1. Their ability to react with IgE antibodies in HDM allergic individuals, to stimulate in vitro T cell proliferation of HDM allergic individuals and non-allergics, and to stimulate ex vivo cytokine production of HDM allergic individuals and non-allergics. The following tests were used: • Basophil Activation Test (BAT) was used as a predictive in vitro assay for indication of safety/immediate hypersensitivity reactions. BAT test was carried out using blood from HDM allergic individuals (n=14), and by use of different concentrations of test proteins or the major house dust mite allergens (Der p 1, Der f 1, Der p 2 or Der f 2, e.g. a concentration of 1, 10, 100 or 1000 ng/ml. • In vitro T cell reactivity determined in T cell lines obtained from HDM allergic individuals (n=30) and non-allergics (n=8): Determined by establishment of HDM specific T-cell lines according to standard methods. In short, PMBCs from HDM allergic donors were cultured for 3 weeks in the presence of house dust mite allergen extract. The responses to proteins at a concentration of 0.5 ug/ml or 2 ug/ml of the test protein or the major house dust mite allergens (Der p 1, Der f 1, Der p 2 or Der f 2) were assessed by proliferation in a standard 72 h T cell proliferation assay, as described in Henmar H et al., Clin Exp Immunol 2008; 153(3):316-23. […]. • Ex vivo stimulation of PBMC cells obtained from mite allergic patients (n=16) and non-allergics (n=6): Determined by measuring the production of the cytokines; IFN-gamma, IL-9, IL-10, IL-17 and IL-31 following stimulation with test protein in concentration up to 10 ug/ml. Freshly isolated PBMC 5×10^6/ml were cultured with a test protein for 5 days and cell supernatant were harvested and stored at −80° C. Cytokines of the supernatants were measured using ProcartaPlex Multiplex Immunoassays with MAGPIX Multiplex Reader according manufactory protocol.

[2] = test system: T cell lines obtained from HDM allergic individuals and non-allergics; assay: In vitro T cell proliferation test in T cell lines (Example 3); conditions: 0.5 or 2 ug/ml, 72 h; for % responders of in-vitro T cell proliferation test, Allergic: T cell lines from HDM allergic individuals (n=30); for % responders of in-vitro T cell proliferation test, Non-allergics: T cell lines from non-allergics (n=8)
From the text: as §1

[3] = test system: PBMC cells obtained from mite allergic patients and non-allergics; assay: Ex vivo stimulation of PBMC: cytokine production (IFN-gamma, IL-9, IL-10, IL-17, IL-31)
From the text: as §1

Molecule	# of individuals of 14 with positive BAT test ([1]; 1 ng/ml)	# of individuals of 14 with positive BAT test ([1]; 10 ng/ml)	# of individuals of 14 with positive BAT test ([1]; 100 ng/ml)	# of individuals of 14 with positive BAT test ([1]; 1000 ng/ml)	% responders of in-vitro T cell proliferation test, Allergic [2] [%]	% responders of in-vitro T cell proliferation test, Non-allergics [2] [%]	% HDM allergic individuals with cytokine production in ex-vivo T cell assay IL-5 [3] [%]	% HDM allergic individuals with cytokine production in ex-vivo T cell assay IL-9 [3] [%]	% HDM allergic individuals with cytokine production in ex-vivo T cell assay IL-10 [3] [%]	% HDM allergic individuals with cytokine production in ex-vivo T cell assay IL-13 [3] [%]	% HDM allergic individuals with cytokine production in ex-vivo T cell assay IL-17 [3] [%]	% HDM allergic individuals with cytokine production in ex-vivo T cell assay IL-31 [3] [%]	% HDM allergic individuals with cytokine production in ex-vivo T cell assay INF-g [3] [%]	% non-allergic individuals with cytokine production in ex-vivo T cell assay IL-5 [3] [%]	% non-allergic individuals with cytokine production in ex-vivo T cell assay IL-9 [3] [%]	% non-allergic individuals with cytokine production in ex-vivo T cell assay IL-10 [3] [%]	% non-allergic individuals with cytokine production in ex-vivo T cell assay IL-13 [3] [%]	% non-allergic individuals with cytokine production in ex-vivo T cell assay IL-17 [3] [%]	% non-allergic individuals with cytokine production in ex-vivo T cell assay IL-31 [3] [%]	% non-allergic individuals with cytokine production in ex-vivo T cell assay INF-g [3] [%]
A017: house dust mite protein; SEQ ID NO: 21 (Der f), 25 (Der p), 313 (Blo t) (protein) MSSSSGKKYDFSGKVALVTGSSSGIGAAIALQFAQYGAQVTITGRDAAALESVAKRIEAESGHQPLQIVGNLLDQSLPAKLIDGTISKYGRLDFLVNNAGFSTQHRDIHDEKLMEAFDQVYGLNVRAVVQLSQLAATHLEKSKGNIINISSNLSMMPVHIIYSSSKAALDMITKTMAMEFGKKGVRVNSINPGPVATQFMRSLGMPVTFLKENEEFVKELTLLKFVAQPVEIANLASFLASDDARNMTGSIVVNDTGSLLAPRVDFKKLDEIKKK	0	0	0	0	7	0	0	0	25	0	13	0	6	0	0	33	0	17	0	0
A020: house dust mite protein; SEQ ID NO: 15 (Der f), 16 (Der p); Blo t SEQ ID NO: 316 printed as A0019 (protein) MSKPIFYYHPFSGPCRTVSTVAKILNVDMEMKKLDLLTKEHLNPEFLKVNPFHKVPTFVDSDGFVVDESRVIAMYLVESRKPDSFLYPKNDLKKRIQIDRWLHYDINLSTTISAPMFCVFRGHQVQDYQVEQGKETLKTLDGVMQSFEGKFLTGADQFTLADIAMYFSLNTMEVYPKYFKFDDYPNLKSWYHRVAEALKQYDTEGTIPKAIETMKQFIQQRAAEAEKH	0	1	1	1	18	25	6	0	25	6	6	0	0	0	0	0	0	0	0	17
A018: house dust mite protein; SEQ ID NO: 5 (Der f), 6 (Der p), 314 (Blo t) (protein) MVKAVVVLKGDPNVSGTIFFEQQDNGPVKVTGSVQGLKPGLHGFHVHEFGDNTNGCTSAGAHYNPLNKTHGAPNDEERHVGDLGNIEANDKGVANVVIEDSLISLTGEKSIVGRSLVVHADPDDLGRGGHELSKTTGNAGGRLVCGVIGVTK	0	0	0	0	0	0	0	6	56	13	44	6	19	0	0	67	17	83	0	33
A019: house dust mite protein; SEQ ID NO: 1 (Der f), 4 (Der p), 315 (Blo t) (protein) QVYCNGAAIVSAARSQIGVPYSWGGGGIHGKSRGIGEGANTVGFDCSGLAQYSVYQGTHKVLARVASGQYSDPKCHHVAYGSHQPGDLVFFGNPIHHVGIVSAHGRMINAPHTGTNVREENIWSDHIANVARCW	2	2	2	4	39	13	38	56	75	56	100	13	50	0	0	100	0	100	17	100
